{
  "source": "paper PMC2783380",
  "binders": {"B1": {"name": "APOBEC3G, Q9HC16 1-384 (enzyme)", "chain": "MKPHFRNTVERMYRDTFSYNFYNRPILSRRNTVWLCYEVKTKGPSRPPLDAKIFRGQVYSELKYHPEMRFFHWFSKWRKLHRDQEYEVTWYISWSPCTKCTRDMATFLAEDPKVTLTIFVARLYYFWDPDYQEALRSLCQKRDGPRATMKIMNYDEFQHCWSKFVYSQRELFEPWNNLPKYYILLHIMLGEILRHSMDPPTFTFNFNNEPWVRGRHETYLCYEVERMHNDTWVLLNQRRGFLCNQAPHKHGFLEGRHAELCFLDVIPFWKLDLDQDYRVTCFTSWSPCFSCAQEMAKFISKNKHVSLCIFTARIYDDQGRCQEGLRTLAEAGAKISIMTYSEFKHCWDTFVDHQGCPFQPWDGLDEHSQDLSGRLRAILQNQEN"}},
  "biological_target": "APOBEC3G (human), Q9HC16",
  "experiment": "AUC",
  "details": "remark: other sources report otherwise",
  "data": [
    {"binder": "B1", "values": [
      {"measurement": "stoichiometry N", "value": 4}
    ]}
  ]
}
